Measurements from patent publication US20190211057A1 (NATIONAL YANG MING UNIVERSITY, published 2019).
Ends that are not written are not given here.

What was measured:
integrin αvβ3 receptor [1] = target: T1, integrin αvβ3 receptor (UniProt P06756 31-992; P05106 27-718); experiment: ELISA on integrin αvβ3 receptor; paragraph 109 says yCD can not be bound before and after modification
T1 construct: also called αvβ3 integrin; αvβ3 integrin receptor

[2] = target: T2, integrin αvβ3 receptor on cells (HUVEC, U87MG, MCF-7, ES-2-luc) (human, UniProt P06756 31-1048; P05106 27-788); experiment: cell ELISA on HUVEC cells (repeats Table 2)
T2 construct: whole, on cells; HUVEC and U87MG express αvβ3 highly, MCF-7 has low or no expression and ES-2-luc moderate expression; also called integrin αvβ3 on cells; integrin receptor on the cell membrane

integrin αvβ3 receptor [3] = target: T1, integrin αvβ3 receptor; experiment: ELISA on integrin αvβ3 receptor, one site-specific binding fit
From the text: The curve and receptor binding ability parameters (see FIG. 19 and Table 14) are fitted by the binding ability of DTPA-modified protein and integrin αᵥβ₃ receptor through the One site-Specific binding formula in the Graph prism program.

integrin αvβ3 receptor [4] = target: T1, integrin αvβ3 receptor; experiment: ELISA on integrin αvβ3 receptor (repeats Table 14)
[5] = target: T2, integrin αvβ3 receptor on cells (HUVEC, …); experiment: cell ELISA on U87MG cells (repeats Table 2)
[6] = target: T2, integrin αvβ3 receptor on cells (HUVEC, …); experiment: cell ELISA on MCF-7 cells (repeats Table 2)
[7] = target: T2, integrin αvβ3 receptor on cells (HUVEC, …); experiment: cell ELISA on U87MG cells, anti-His-HRP
From the text: (§1) After reacted with anti-His-HRP antibody and TMB substrate, ELISA reader (OD450 nm) is used to detect the amount of recombinant protein bound to the cells, and the binding curve is drawn. The nonlinear curve of the prism software is used to make a diagram and calculate the dissociation constant (Kd).
(§2) The anti-His6-Tag-HRP antibody and TMB show the color reagent to detect the amount of recombinant protein bound to the cell, then the dissociation constant Kd value of the recombinant protein and the integrin αᵥβ₃ receptor is calculated and a binding curve is drawn.

[8] = target: T2, integrin αvβ3 receptor on cells (HUVEC, …); experiment: cell ELISA, HUVEC against MCF-7
[9] = target: T2, integrin αvβ3 receptor on cells (HUVEC, …); experiment: cell-based or functional assay
[10] = target: T2, integrin αvβ3 receptor on cells (HUVEC, …); experiment: cell-based or functional assay; remark: listed apart in the source
[11] = target: T2, integrin αvβ3 receptor on cells (HUVEC, …); experiment: cell ELISA on HUVEC cells, anti-His-HRP
From the text: as §1, §2

[12] = target: T2, integrin αvβ3 receptor on cells (HUVEC, …); experiment: cell ELISA on MCF-7 cells (low αvβ3 expression), anti-His-HRP
From the text: as §1, §2

[13] = target: T2, integrin αvβ3 receptor on cells (HUVEC, …); experiment: cell-based or functional assay; remark: listed apart in the source
[14] = target: T2, integrin αvβ3 receptor on cells (HUVEC, …); experiment: cell ELISA, U87MG against MCF-7
integrin αvβ3 receptor [15] = target: T1, integrin αvβ3 receptor; experiment: ELISA on integrin αvβ3 receptor, anti-His6-HRP detection, curve fit
From the text: The dissociation constant Kd is obtained by prism software with curve fitting method.

integrin αvβ3 receptor [16] = target: T1, integrin αvβ3 receptor; experiment: ELISA on integrin αvβ3 receptor, after simulated labelling and challenge with 10-fold molar excess of EDTA
integrin αvβ3 receptor [17] = target: T1, integrin αvβ3 receptor; experiment: ELISA on integrin αvβ3 receptor, after simulated labelling conditions
[18] = target: T3, integrin αvβ3 receptor on cells (HUVEC, U87MG, MCF-7, ES-2-luc) (human), P06756; experiment: competitive cell uptake on HUVEC cells, cRGDfk at 1000-fold molar excess; labelled ^111In-DTPA-RGD4C-yCD; details: remark: other sources report otherwise
T3 chain 1: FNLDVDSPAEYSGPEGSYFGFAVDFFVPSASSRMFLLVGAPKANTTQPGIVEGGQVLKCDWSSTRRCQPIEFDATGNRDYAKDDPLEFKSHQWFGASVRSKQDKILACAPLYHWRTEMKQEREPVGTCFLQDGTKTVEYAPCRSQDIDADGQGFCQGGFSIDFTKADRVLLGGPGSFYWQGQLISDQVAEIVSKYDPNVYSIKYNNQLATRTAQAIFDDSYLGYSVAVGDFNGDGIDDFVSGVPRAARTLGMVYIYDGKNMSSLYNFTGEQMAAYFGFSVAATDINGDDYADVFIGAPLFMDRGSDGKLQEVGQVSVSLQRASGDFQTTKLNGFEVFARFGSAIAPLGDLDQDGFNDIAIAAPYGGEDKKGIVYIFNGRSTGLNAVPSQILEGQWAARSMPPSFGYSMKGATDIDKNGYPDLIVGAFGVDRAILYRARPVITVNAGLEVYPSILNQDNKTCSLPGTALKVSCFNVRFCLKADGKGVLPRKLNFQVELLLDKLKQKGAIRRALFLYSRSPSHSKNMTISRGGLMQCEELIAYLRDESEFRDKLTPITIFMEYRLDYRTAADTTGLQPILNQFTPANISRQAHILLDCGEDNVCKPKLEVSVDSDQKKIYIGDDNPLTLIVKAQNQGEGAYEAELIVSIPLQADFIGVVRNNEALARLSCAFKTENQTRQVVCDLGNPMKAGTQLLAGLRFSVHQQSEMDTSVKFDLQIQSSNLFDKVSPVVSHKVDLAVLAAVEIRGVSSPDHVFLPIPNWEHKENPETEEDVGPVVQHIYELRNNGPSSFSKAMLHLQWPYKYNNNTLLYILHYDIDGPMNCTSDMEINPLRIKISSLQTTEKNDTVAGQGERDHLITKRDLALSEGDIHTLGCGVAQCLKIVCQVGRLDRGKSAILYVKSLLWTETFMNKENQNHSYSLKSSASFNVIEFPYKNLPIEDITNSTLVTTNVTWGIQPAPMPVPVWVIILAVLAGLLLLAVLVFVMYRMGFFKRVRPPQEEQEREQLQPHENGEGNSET
T3 chain 2: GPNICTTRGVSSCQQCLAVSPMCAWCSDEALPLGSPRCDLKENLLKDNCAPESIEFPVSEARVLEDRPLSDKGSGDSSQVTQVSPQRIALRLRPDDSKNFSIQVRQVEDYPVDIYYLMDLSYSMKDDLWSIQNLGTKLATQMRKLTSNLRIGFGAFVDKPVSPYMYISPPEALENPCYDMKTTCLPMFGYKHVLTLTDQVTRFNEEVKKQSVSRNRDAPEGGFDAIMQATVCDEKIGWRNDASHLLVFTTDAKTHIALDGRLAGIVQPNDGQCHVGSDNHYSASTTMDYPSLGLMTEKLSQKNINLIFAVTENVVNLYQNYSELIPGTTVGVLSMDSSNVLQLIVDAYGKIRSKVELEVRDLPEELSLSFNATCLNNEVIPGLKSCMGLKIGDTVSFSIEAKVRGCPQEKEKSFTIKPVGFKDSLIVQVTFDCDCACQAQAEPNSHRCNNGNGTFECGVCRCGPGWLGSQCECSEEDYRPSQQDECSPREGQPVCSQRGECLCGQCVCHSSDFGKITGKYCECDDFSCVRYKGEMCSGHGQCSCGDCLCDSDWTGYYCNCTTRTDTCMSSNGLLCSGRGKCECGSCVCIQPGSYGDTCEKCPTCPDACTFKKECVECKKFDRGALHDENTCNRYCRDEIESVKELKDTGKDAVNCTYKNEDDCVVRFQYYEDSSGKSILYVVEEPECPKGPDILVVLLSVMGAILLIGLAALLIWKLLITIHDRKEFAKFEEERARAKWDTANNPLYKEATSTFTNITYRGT

[19] = target: T3, integrin αvβ3 receptor on cells (HUVEC, …); experiment: competitive cell uptake on MCF-7 cells (low αvβ3), cRGDfk at 1000-fold molar excess; labelled ^111In-DTPA-RGD4C-yCD; details: remark: other sources report otherwise
[20] = target: T3, integrin αvβ3 receptor on cells (HUVEC, …); experiment: competitive cell uptake on ES-2-luc cells, cRGDfk at 1000-fold molar excess; labelled competitor ^111In-DTPA-RGD4C-yCD; details: remark: other sources report otherwise

B1: DTPA-yCD (enzyme)
chain: MVVTGGMASKWDQKGMDIAYEEAALGYKEGGVPIGGCLINNKDGSVLGRGHNMRFQKGSATLHGEISTLENCGRLEGKVYKDTTLYTTLSPCDMCTGAIIMYGIPRCVVGENVNFKSKGEKYLQTRGHEVVVVDDERCKKIMKQFIDERPQDWFEDIGELEHHHHHH
modifications: DTPA on primary amines, 1.16 DTPA per protein on average
binding result (integrin αvβ3 receptor [1]): no binding

B2: RGD4C-yCD (other)
chain: MACDCRGDCFCVTGGMASKWDQKGMDIAYEEAALGYKEGGVPIGGCLINNKDGSVLGRGHNMRFQKGSATLHGEISTLENCGRLEGKVYKDTTLYTTLSPCDMCTGAIIMYGIPRCVVGENVNFKSKGEKYLQTRGHEVVVVDDERCKKIMKQFIDERPQDWFEDIGELEHHHHHH
notes: Fusion of the RGD4C peptide with yeast cytosine deaminase, expressed from pET28a(+) in E. coli and detected by its His6 tag; also called RGD4C-yCD recombinant protein
Kd [2]: 0.0475 µM | Kd (integrin αvβ3 receptor [3]): 0.0207 µM | Kd (integrin αvβ3 receptor [4]): 0.0207 µM | Kd [5]: 0.0537 µM | Kd [6]: 0.366 µM | Kd [7]: 0.0537 µM | fold cell binding ability against MCF-7 [8]: ~7.7 fold | protein reaction concentration IC50 of cytotoxic effect, MTT, HUVEC cells, 100 µM 5-FC [9]: 0.209 µM | protein reaction concentration IC50 of cytotoxic effect, MTT, U87MG cells, 100 µM 5-FC [9]: 0.177 µM | IC50 of 5-FC, MTT cytotoxicity, HUVEC cells incubated with 500 nM protein then washed [10]: 23.6 µM | IC50 of 5-FC, MTT cytotoxicity, MCF-7 cells (low αvβ3) incubated with 500 nM protein then washed [10]: 5130 µM | IC50 of 5-FC, MTT cytotoxicity, U87MG cells incubated with 500 nM protein then washed [10]: 37.1 µM | Kd [11]: 0.0475 µM | Kd [12]: 0.366 µM | IC50 of 5-FC, MTT cytotoxicity, HUVEC cells incubated with 500 nM protein then washed (repeats Table 3) [13]: 23.6 µM | IC50 of 5-FC, MTT cytotoxicity, MCF-7 cells (low αvβ3) incubated with 500 nM protein then washed (repeats Table 3) [13]: 5130 µM | IC50 of 5-FC, MTT cytotoxicity, U87MG cells incubated with 500 nM protein then washed (repeats Table 3) [13]: 37.1 µM | fold cell binding ability against MCF-7 [14]: ~6.8 fold | Kd (integrin αvβ3 receptor [15]): 0.0395 µM

B3: In-DTPA-RGD4C-yCD (other)
chain: MACDCRGDCFCVTGGMASKWDQKGMDIAYEEAALGYKEGGVPIGGCLINNKDGSVLGRGHNMRFQKGSATLHGEISTLENCGRLEGKVYKDTTLYTTLSPCDMCTGAIIMYGIPRCVVGENVNFKSKGEKYLQTRGHEVVVVDDERCKKIMKQFIDERPQDWFEDIGELEHHHHHH
modifications: DTPA on primary amines, loaded with the stable isotope of indium
notes: also called In-DTPA- RGD4C-yCD 10x EDTA
Kd (integrin αvβ3 receptor [16]): 0.0346 µM | Kd (integrin αvβ3 receptor [17]): 0.0254 µM

B4: cRGDfk (peptide)
peptide: RGDFK
modifications: not fully specified (residues 4, 5); also: prefix c and lower-case f, k not explained
percent decrease of uptake [18]: 65% | percent decrease of uptake [19]: 45% | percent decrease of uptake [20]: 70%
